Data as given in the DeepSol protein solubility set.

Assay: soluble on expression in E. coli; label from the status in PepcDB or PDB records

Row | Sequence | soluble on expression in E. coli
1 | MHHFSTGSSSAIIASSSSSSSSSNGYGHSPRDLLTGAAVANGGGGGFGGVAGVAFATTSPPTPVNLDVQRIDCTDETTVVMVKLTDEMFAALQESQRSGKPLRINVNDKEGRVEIGDGTASSKTNNTFYFQKQTVPEQTDTLVHSGGGVRNVGTYKTKYQIQATDRSFQETKKRAELRAEVEKSRGTKQMKKSGVTSSSSRYHNSSNSTPRSMNSAPNSSRVSPSFMSSSSSKASTSHVTTNNSKGTPNNGSESKKIDMTPQLMKHSIKKRIIHLIVTQKYSNWEEVYKKLKSDGLPEEKDEIEKIRSCVEEVSETRPEMSVMSLRTSFLSEVDQRWMFFNQEEKSHVRRLCNSGSRVGPTDNNFAPLRKKGMERITASSKTEKDKVKEKLEEAAKIPSPPKDQKSLPSIVEEDDYYTAPPEPANKRRAHNLAPPPPPPVQVVTPQTTSSQTETGPLPPKRTKRPESSSPQLERSSQPASKLNPIKLAATIAMQPIPKCDPPPPPPSRDTYHHNVASVAVNGGGSTASSRVSSPASSLSSPSQPSCNWEKQFGDIKTLSEAEAYFKQFHKEYPLYMECHEMLTKVSSEFRGLEVKLLTAVALSKTSPSPQNMQNVKQIEKNIQNRYAHFEKDPEFMKARQRHTDLRSKLNVLKTRIGSWEKMRRQSSTNV | soluble
2 | MHHHHHHGGGGGMINKPNQFVNHLSALKKHFASYKELREAFNDYHKHNGDELTTFFLHQFDKVMELVKQKDFKTAQSRCEEELAAPYLPKPLVSFFQSLLQLVNHDLLEQQNAALASLPAAKIIELVLQDYPNKLNMIHYLLPKTKAFVKPHLLQRLQFVLTDSELLELKRFSFFQALNQIPGFQGEQVEYFNSKLKQKFTLTLGEFEIAQQPDAKAYFEQLITQIQQLFLKEPVNAEFANEIIDAFLVSYFPLHPPVPLAQLAAKIYEYVSQIVLNEAVNLKDELIKLIVHTLYEQLDRPVGDEN | soluble
3 | MHHHHHHGKPIPNPLLGLDSTENLYFQGIDPFTEFMDSTDLFDVFEETPVELPTDSNGEKNADTNVGDTPDHTQDKKHGLEEEKEEHEENNSENKKIKSNKSKTEDKNKKVVVPVLADSFEQEASREVDASKGLTNSETLQVEQDGKVRLSHQVRHQVALPPNYDYTPIAEHKRVNEARTYPFTLDPFQDTAISCIDRGESVLVSAHTSAGKTVVAEYAIAQSLKNKQRVIYTSPIKALSNQKYRELLAEFGDVGLMTGDITINPDAGCLVMTTEILRSMLYRGSEVMREVAWVIFDEVHYMRDKERGVVWEETIILLPDKVRYVFLSATIPNAMEFAEWICKIHSQPCHIVYTNFRPTPLQHYLFPAHGDGIYLVVDEKSTFREENFQKAMASISNQIGDDPNSTDSRGKKGQTYKGGSAKGDAKGDIYKIVKMIWKKKYNPVIVFSFSKRDCEELALKMSKLDFNSDDEKEALTKIFNNAIALLPETDRELPQIKHILPLLRRGIGIHHSGLLPILKEVIEILFQEGFLKVLFATETFSIGLNMPAKTVVFTSVRKWDGQQFRWVSGGEYIQMSGRAGRRGLDDRGIVIMMIDEKMEPQVAKGMVKGQADRLDSAFHLGYNMILNLMRVEGISPEFMLEHSFFQFQNVISVPVMEKKLAELKKDFDGIEVEDEENVKEYHEIEQAIKGYREDVRQVVTHPANALSFLQPGRLVEISVNGKDNYGWGAVVDFAKRINKRNPSAVYTDHESYIVNVVVNTMYIDSPVNLLKPFNPTLPEGIRPAEEGEKSICAVIPITLDSIKSIGNLRLYMPKDIRASGQKETVGKSLREVNRRFPDGIPVLDPVKNMKIEDEDFLKLMKKIDVLNTKLSSNPLTNSMRLEELYGKYSRKHDLHEDMKQLKRKISESQAVIQLDDLRRRKRVLRRLGFCTPNDIIELKGRVACEISSGDELLLTELIFNGNFNELKPEQAAALLSCFAFQERCKEAPRLKPELAEPLKAMREIAAKIAKIMKDSKIEVVEKDYVESFRHELMEVVYEWCRGATFTQICKMTDVYEGSLIRMFKRLEELVKELVDVANTIGNSSLKEKMEAVLKLIHRDIVSAGSLYL | soluble
4 | MHHHHHHGSACFAKGTNVLMADGSIECIENIEVGNKVMGKDGRPREVIKLPRGSETMYSVVQKSQHRAHKSDSSREMPELLKFTCNATHELVVRTPRSVRRLSRTIKGVEYFEVITFEMGQKKAPDGRIVELVKEVSKSYPVSEGPERANELVESYRKASNKAYFEWTIEARDLSLLGSHVRKATYQTYAPIGAAFARECRGFYFELQELKEDDYYGITLSDDSDHQFLLANQVVVH | soluble
5 | MHHHHHHGSMGMMSRYEELRKELPAQPKVWLITGVAGFIGSNLLETLLKLDQKVVGLDNFATGHQRNLDEVRSLVSEKQWSNFKFIQGDIRNLDDCNNACAGVDYVLHQAALGSVPRSINDPITSNATNIDGFLNMLIAARDAKVQSFTYAASSSTYGDHPGLPKVEDTIGKPLSPYAVTKYVNELYADVFSRCYGFSTIGLRYFNVFGRRQDPNGAYAAVIPKWTSSMIQGDDVYINGDGETSRDFCYIENTVQANLLAATAGLDARNQVYNIAVGGRTSLNQLFFALRDGLAENGVSYHREPVYRDFREGDVRHSLADISKAAKLLGYAPKYDVSAGVALAMPWYIMFLK | soluble
6 | MHHHHHHLEVLFQGPSSTVTIEYFNQKKEMTKTLEEITRDFEKENPKIKVKVVNVPNAGEVLKTRVLAGDVPDVVNIYPQSIELQEWAKAGVFEDLSNKDYLKRVKNGYAEKYAVNEKVYNVPFTANAYGIYYNKDKFEELGLKVPETWDEFEQLVKDIVAKGQTPFGIAGADAWTLNGYNQLAFATATGGGKEANQYLRYSQPNAIKLSDPIMKDDIKVMDILRINGSKQKNWEGAGYTDVIGAFARGDVLMTPNGSWAITAINEQKPNFKIGTFMIPGKEKGQSLTVGAGDLAWSISATTKHPKEANAFVEYMTRPEVMQKYYDVDGSPTAIEGVKQAGEDSPLAGMTEYAFTDRHLVWLQQYWTSEADFHTLTMNYVLTGDKQGMVNDLNAFFNPMKM | soluble
7 | MHHHHHHMGLELYLDLLSQPCRAVYIFAKKNDIPFELRIVDLIKGQHLSDAFAQVNPLKKVPALKDGDFTLTESVAILLYLTRKYKVPDYWYPQDLQARARVDEYLAWQHTTLRRSCLRALWHKVMFPVFLGEPVSPQTLAATLAELDVTLQLLEDKFLQNKAFLTGPHISLADLVAITELMHPVGAGCQVFEGRPKLATWRQRVEAAVGEDLFQEAHEVILKAKDFPPADPTIKQKLMPWVLAMIR | soluble
8 | MHHHHHHMKHNQLPLVIEFTEQTAPKIFGGEIKTHILLFLPKSVSDYDGKLSNFKTAAESFKGKILFAFIDSDHTDNQRILEFFGLKKEECPAVRLITLEEEMTKYKPESEELTAERITEFCHRFLEGKIKPHLMSQELPEDWDKQP | soluble
9 | MHHHHHHSSGVDLGTENLYFQSMLPHSVLLEIQKELLDYKGVGISVLEMSHRSSDFAKIINNTENLVRELLAVPDNYKVIFLQGGGCGQFSAVPLNLIGLKAGRCADYVVTGAWSAKAAEEAKKFGTINIVHPKLGSYTKIPDPSTWNLNPDASYVYYCANETVHGVEFDFIPDVKGAVLVCDMSSNFLSKPVDVSKFGVIFAGAQKNVGSAGVTVVIVRDDLLGFALRECPSVLEYKVQAGNSSLYNTPPCFSIYVMGLVLEWIKNNGGAAAMEKLSSIKSQTIYEIIDNSQGFYVCPVEPQNRSKMNIPFRIGNAKGDDALEKRFLDKALELNMLSLKGHRSVGGIRASLYNAVTIEDVQKLAAFMKKFLEMHQL | soluble
10 | MHHHHHHSSGVDLGTENLYFQSMPFPEGKVLDDMEGNQWVLGKKIGSGGFGLIYLAFPTNKPEKDARHVVKVEYQENGPLFSELKFYQRVAKKDCIKKWIERKQLDYLGIPLFYGSGLTEFKGRSYRFMVMERLGIDLQKISGQNGTFKKSTVLQLGIRMLDVLEYIHENEYVHGDIKAANLLLGYKNPDQVYLADYGLSYRYCPNGNHKQYQENPRKGHNGTIEFTSLDAHKGVALSRRSDVEILGYCMLRWLCGKLPWEQNLKDPVAVQTAKTNLLDELPQSVLKWAPSGSSCCEIAQFLVCAHSLAYDEKPNYQALKKILNPHGIPLGPLDFSTKGQSINVH | soluble
